Numbered stars: 1 amine (or outer) side, 2 acyl side, 3 side chain; on linkers, the order of the positions; unused ones are H or OH. Bridge positions count the residues as written; N and C are the ends. Side chains are listed from the residue outwards. Ends that are not written are not given here. * marks the point of attachment. C20 diacid = O=C(O)CCCCCCCCCCCCCCCCCCC(=O)*; γGlu = O=C(O)[C@H](CCC(=O)[*:2])N[*:1]
T1: human calcitonin receptor (human, UniProt P30988 25-474)
T1 construct: whole, on cells; also called hCTR; hCT
T1 sequence (looked up): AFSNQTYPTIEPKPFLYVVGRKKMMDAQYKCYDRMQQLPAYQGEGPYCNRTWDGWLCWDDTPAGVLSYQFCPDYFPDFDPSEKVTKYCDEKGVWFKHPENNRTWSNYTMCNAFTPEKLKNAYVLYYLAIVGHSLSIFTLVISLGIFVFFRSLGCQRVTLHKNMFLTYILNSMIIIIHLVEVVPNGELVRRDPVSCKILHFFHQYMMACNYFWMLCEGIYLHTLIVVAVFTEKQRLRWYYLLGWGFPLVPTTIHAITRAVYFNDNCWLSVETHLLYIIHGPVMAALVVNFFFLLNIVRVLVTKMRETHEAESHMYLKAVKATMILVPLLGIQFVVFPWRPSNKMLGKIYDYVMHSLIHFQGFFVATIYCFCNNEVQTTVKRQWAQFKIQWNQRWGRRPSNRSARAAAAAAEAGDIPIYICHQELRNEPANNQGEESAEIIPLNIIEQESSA

B1: N^ε1-[(4S)-4-carboxy-4-(19-carboxynonadecanoylamino)butanoyl]-[His14,Arg17,Pro21,Pro27]-h-amylin (peptide)
peptide: K([γGlu-C20 diacid])CNTATCATQRLAHFLRHSSPNFGAIPSSTNVGSNTY-NH2
modifications: disulfide 2-7; N-terminus assumed
SMILES: CC[C@H](C)[C@H](NC(=O)[C@H](C)NC(=O)CNC(=O)[C@H](Cc1ccccc1)NC(=O)[C@H](CC(N)=O)NC(=O)[C@@H]1CCCN1C(=O)[C@H](CO)NC(=O)[C@H](CO)NC(=O)[C@H](Cc1c[nH]cn1)NC(=O)[C@H](CCCNC(=N)N)NC(=O)[C@H](CC(C)C)NC(=O)[C@H](Cc1ccccc1)NC(=O)[C@H](Cc1c[nH]cn1)NC(=O)[C@H](C)NC(=O)[C@H](CC(C)C)NC(=O)[C@H](CCCNC(=N)N)NC(=O)[C@H](CCC(N)=O)NC(=O)[C@@H](NC(=O)[C@H](C)NC(=O)[C@@H]1CSSC[C@H](NC(=O)[C@@H](N)CCCCNC(=O)CC[C@H](NC(=O)CCCCCCCCCCCCCCCCCCC(=O)O)C(=O)O)C(=O)N[C@@H](CC(N)=O)C(=O)N[C@@H]([C@@H](C)O)C(=O)N[C@@H](C)C(=O)N[C@@H]([C@@H](C)O)C(=O)N1)[C@@H](C)O)C(=O)N1CCC[C@H]1C(=O)N[C@@H](CO)C(=O)N[C@@H](CO)C(=O)N[C@H](C(=O)N[C@@H](CC(N)=O)C(=O)N[C@H](C(=O)NCC(=O)N[C@@H](CO)C(=O)N[C@@H](CC(N)=O)C(=O)N[C@H](C(=O)N[C@@H](Cc1ccc(O)cc1)C(N)=O)[C@@H](C)O)C(C)C)[C@@H](C)O
notes: also called compound 70
B2: N^ε1-[(4S)-4-carboxy-4-[[(4S)-4-carboxy-4-(19-carboxynonadecanoylamino)butanoyl]amino]butanoyl]-[Asp14,Arg17,Pro21,Pro27,Asp35]-h-amylin (peptide)
peptide: K([γGlu-γGlu-C20 diacid])CNTATCATQRLADFLRHSSPNFGAIPSSTNVGSDTY-NH2
modifications: disulfide 2-7; N-terminus assumed
SMILES: CC[C@H](C)[C@H](NC(=O)[C@H](C)NC(=O)CNC(=O)[C@H](Cc1ccccc1)NC(=O)[C@H](CC(N)=O)NC(=O)[C@@H]1CCCN1C(=O)[C@H](CO)NC(=O)[C@H](CO)NC(=O)[C@H](Cc1c[nH]cn1)NC(=O)[C@H](CCCNC(=N)N)NC(=O)[C@H](CC(C)C)NC(=O)[C@H](Cc1ccccc1)NC(=O)[C@H](CC(=O)O)NC(=O)[C@H](C)NC(=O)[C@H](CC(C)C)NC(=O)[C@H](CCCNC(=N)N)NC(=O)[C@H](CCC(N)=O)NC(=O)[C@@H](NC(=O)[C@H](C)NC(=O)[C@@H]1CSSC[C@H](NC(=O)[C@@H](N)CCCCNC(=O)CC[C@H](NC(=O)CC[C@H](NC(=O)CCCCCCCCCCCCCCCCCCC(=O)O)C(=O)O)C(=O)O)C(=O)N[C@@H](CC(N)=O)C(=O)N[C@@H]([C@@H](C)O)C(=O)N[C@@H](C)C(=O)N[C@@H]([C@@H](C)O)C(=O)N1)[C@@H](C)O)C(=O)N1CCC[C@H]1C(=O)N[C@@H](CO)C(=O)N[C@@H](CO)C(=O)N[C@H](C(=O)N[C@@H](CC(N)=O)C(=O)N[C@H](C(=O)NCC(=O)N[C@@H](CO)C(=O)N[C@@H](CC(=O)O)C(=O)N[C@H](C(=O)N[C@@H](Cc1ccc(O)cc1)C(N)=O)[C@@H](C)O)C(C)C)[C@@H](C)O
notes: also called compound 2
B3: N^ε1-[(4S)-4-carboxy-4-[[(4S)-4-carboxy-4-(19-carboxynonadecanoylamino)butanoyl]amino]butanoyl]-[Asp14,Arg17,Pro21,Pro26,Asp35]-h-amylin (peptide)
peptide: K([γGlu-γGlu-C20 diacid])CNTATCATQRLADFLRHSSPNFGAPLSSTNVGSDTY-NH2
modifications: disulfide 2-7; N-terminus assumed
SMILES: CC(C)C[C@H](NC(=O)[C@H](CCCNC(=N)N)NC(=O)[C@H](CCC(N)=O)NC(=O)[C@@H](NC(=O)[C@H](C)NC(=O)[C@@H]1CSSC[C@H](NC(=O)[C@@H](N)CCCCNC(=O)CC[C@H](NC(=O)CC[C@H](NC(=O)CCCCCCCCCCCCCCCCCCC(=O)O)C(=O)O)C(=O)O)C(=O)N[C@@H](CC(N)=O)C(=O)N[C@@H]([C@@H](C)O)C(=O)N[C@@H](C)C(=O)N[C@@H]([C@@H](C)O)C(=O)N1)[C@@H](C)O)C(=O)N[C@@H](C)C(=O)N[C@@H](CC(=O)O)C(=O)N[C@@H](Cc1ccccc1)C(=O)N[C@@H](CC(C)C)C(=O)N[C@@H](CCCNC(=N)N)C(=O)N[C@@H](Cc1c[nH]cn1)C(=O)N[C@@H](CO)C(=O)N[C@@H](CO)C(=O)N1CCC[C@H]1C(=O)N[C@@H](CC(N)=O)C(=O)N[C@@H](Cc1ccccc1)C(=O)NCC(=O)N[C@@H](C)C(=O)N1CCC[C@H]1C(=O)N[C@@H](CC(C)C)C(=O)N[C@@H](CO)C(=O)N[C@@H](CO)C(=O)N[C@H](C(=O)N[C@@H](CC(N)=O)C(=O)N[C@H](C(=O)NCC(=O)N[C@@H](CO)C(=O)N[C@@H](CC(=O)O)C(=O)N[C@H](C(=O)N[C@@H](Cc1ccc(O)cc1)C(N)=O)[C@@H](C)O)C(C)C)[C@@H](C)O
notes: also called compound 1
B4: N^ε1-[(4S)-4-carboxy-4-[[(4S)-4-carboxy-4-(19-carboxynonadecanoylamino)butanoyl]amino]butanoyl]-[Asp14,Arg17,Pro21,Pro27,Arg35]-h-amylin (peptide)
peptide: K([γGlu-γGlu-C20 diacid])CNTATCATQRLADFLRHSSPNFGAIPSSTNVGSRTY-NH2
modifications: disulfide 2-7; N-terminus assumed
SMILES: CC[C@H](C)[C@H](NC(=O)[C@H](C)NC(=O)CNC(=O)[C@H](Cc1ccccc1)NC(=O)[C@H](CC(N)=O)NC(=O)[C@@H]1CCCN1C(=O)[C@H](CO)NC(=O)[C@H](CO)NC(=O)[C@H](Cc1c[nH]cn1)NC(=O)[C@H](CCCNC(=N)N)NC(=O)[C@H](CC(C)C)NC(=O)[C@H](Cc1ccccc1)NC(=O)[C@H](CC(=O)O)NC(=O)[C@H](C)NC(=O)[C@H](CC(C)C)NC(=O)[C@H](CCCNC(=N)N)NC(=O)[C@H](CCC(N)=O)NC(=O)[C@@H](NC(=O)[C@H](C)NC(=O)[C@@H]1CSSC[C@H](NC(=O)[C@@H](N)CCCCNC(=O)CC[C@H](NC(=O)CC[C@H](NC(=O)CCCCCCCCCCCCCCCCCCC(=O)O)C(=O)O)C(=O)O)C(=O)N[C@@H](CC(N)=O)C(=O)N[C@@H]([C@@H](C)O)C(=O)N[C@@H](C)C(=O)N[C@@H]([C@@H](C)O)C(=O)N1)[C@@H](C)O)C(=O)N1CCC[C@H]1C(=O)N[C@@H](CO)C(=O)N[C@@H](CO)C(=O)N[C@H](C(=O)N[C@@H](CC(N)=O)C(=O)N[C@H](C(=O)NCC(=O)N[C@@H](CO)C(=O)N[C@@H](CCCNC(=N)N)C(=O)N[C@H](C(=O)N[C@@H](Cc1ccc(O)cc1)C(N)=O)[C@@H](C)O)C(C)C)[C@@H](C)O
notes: also called compound 52
B5: N^ε1N^ε1-[(4S)-4-carboxy-4-(19-carboxynonadecanoylamino)butanoyl]-[His14,Arg17,Pro21,Pro27,Pro34]-h-amylin (peptide)
peptide: K([γGlu-C20 diacid])CNTATCATQRLAHFLRHSSPNFGAIPSSTNVGPNTY-NH2
modifications: disulfide 2-7; N-terminus assumed
SMILES: CC[C@H](C)[C@H](NC(=O)[C@H](C)NC(=O)CNC(=O)[C@H](Cc1ccccc1)NC(=O)[C@H](CC(N)=O)NC(=O)[C@@H]1CCCN1C(=O)[C@H](CO)NC(=O)[C@H](CO)NC(=O)[C@H](Cc1c[nH]cn1)NC(=O)[C@H](CCCNC(=N)N)NC(=O)[C@H](CC(C)C)NC(=O)[C@H](Cc1ccccc1)NC(=O)[C@H](Cc1c[nH]cn1)NC(=O)[C@H](C)NC(=O)[C@H](CC(C)C)NC(=O)[C@H](CCCNC(=N)N)NC(=O)[C@H](CCC(N)=O)NC(=O)[C@@H](NC(=O)[C@H](C)NC(=O)[C@@H]1CSSC[C@H](NC(=O)[C@@H](N)CCCCNC(=O)CC[C@H](NC(=O)CCCCCCCCCCCCCCCCCCC(=O)O)C(=O)O)C(=O)N[C@@H](CC(N)=O)C(=O)N[C@@H]([C@@H](C)O)C(=O)N[C@@H](C)C(=O)N[C@@H]([C@@H](C)O)C(=O)N1)[C@@H](C)O)C(=O)N1CCC[C@H]1C(=O)N[C@@H](CO)C(=O)N[C@@H](CO)C(=O)N[C@H](C(=O)N[C@@H](CC(N)=O)C(=O)N[C@H](C(=O)NCC(=O)N1CCC[C@H]1C(=O)N[C@@H](CC(N)=O)C(=O)N[C@H](C(=O)N[C@@H](Cc1ccc(O)cc1)C(N)=O)[C@@H](C)O)C(C)C)[C@@H](C)O
notes: also called compound 67
B6: N^α1-[2-[2-[2-[[2-[2-[2-[[(4S)-4-carboxy-4-(19-carboxynonadecanoylamino)butanoyl]amino]ethoxy]ethoxy]acetyl]amino]ethoxy]ethoxy]acetyl]-[Arg17,Pro21,Pro27]-h-am … (peptide)
peptide: KCNTATCATQRLANFLRHSSPNFGAIPSSTNVGSNTY
modifications: C20 diacid-gGlu-2xOEG on alpha amino group of N-terminal Lys 1; disulfide Cys2-Cys7; C-terminal amide (as human amylin)
notes: also called compound 24
B7: N^α1-[(4S)-4-carboxy-4-(19-carboxynonadecanoylamino)butanoyl]-[Glu14,Arg17,Pro21,Pro25,Pro28,Pro29]-h-amylin (peptide)
peptide: {C20 diacid-γGlu}-KCNTATCATQRLAEFLRHSSPNFGPILPPTNVGSNTY-NH2
modifications: disulfide 2-7
SMILES: CC[C@H](C)[C@H](NC(=O)[C@@H]1CCCN1C(=O)CNC(=O)[C@H](Cc1ccccc1)NC(=O)[C@H](CC(N)=O)NC(=O)[C@@H]1CCCN1C(=O)[C@H](CO)NC(=O)[C@H](CO)NC(=O)[C@H](Cc1c[nH]cn1)NC(=O)[C@H](CCCNC(=N)N)NC(=O)[C@H](CC(C)C)NC(=O)[C@H](Cc1ccccc1)NC(=O)[C@H](CCC(=O)O)NC(=O)[C@H](C)NC(=O)[C@H](CC(C)C)NC(=O)[C@H](CCCNC(=N)N)NC(=O)[C@H](CCC(N)=O)NC(=O)[C@@H](NC(=O)[C@H](C)NC(=O)[C@@H]1CSSC[C@H](NC(=O)[C@H](CCCCN)NC(=O)CC[C@H](NC(=O)CCCCCCCCCCCCCCCCCCC(=O)O)C(=O)O)C(=O)N[C@@H](CC(N)=O)C(=O)N[C@@H]([C@@H](C)O)C(=O)N[C@@H](C)C(=O)N[C@@H]([C@@H](C)O)C(=O)N1)[C@@H](C)O)C(=O)N[C@@H](CC(C)C)C(=O)N1CCC[C@H]1C(=O)N1CCC[C@H]1C(=O)N[C@H](C(=O)N[C@@H](CC(N)=O)C(=O)N[C@H](C(=O)NCC(=O)N[C@@H](CO)C(=O)N[C@@H](CC(N)=O)C(=O)N[C@H](C(=O)N[C@@H](Cc1ccc(O)cc1)C(N)=O)[C@@H](C)O)C(C)C)[C@@H](C)O
notes: also called compound 6

biological target: T1, human calcitonin receptor; assay: SPA competition with 125I-calcitonin, membranes of BHK hCTR cells (Assay VII)
Summary of the method: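 BHK hCTR membranes 35 ng/μL + SPA beads 0.05 mg/well; buffer 50 mM Hepes pH 7.4, 1 mM CaCl2, 5 mM MgCl₂, 0.1% OA, 0.02% Tween20. 120 min, 25° C., shaking. Scintillation count; IC50 by one-site binding competition.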

Row | IC50 | Binder
1 | 10.3 nM | B1
2 | 19.5 nM | B2
3 | 32.5 nM | B3
4 | 56.9 nM | B4
5 | 4.63 nM | B5
6 | 102 nM | B6
7 | 19.9 nM | B7
